Assay: soluble on expression in E. coli; label from the status in PepcDB or PDB records

Sequence	soluble on expression in E. coli
GSPGISGGGGGSHIEGYECQPIFLNVLEAIEPGVVCAGHDNNQPDSFAALLSSLNELGERQLVHVVKWAKALPGFRNLHVDDQMAVIQYSWMGLMVFAMGWRSFTNVNSRMLYFAPDLVFNEYRMHKSRMYSQCVRMRHLSQEFGWLQITPQEFLCMKALLLFSIIPVDGLKNQKFFDELRMNYIKELDRIIACKRKNPTSCSRRFYQLTKLLDSVQPIARELHQFTFDLLIKSHMVSVDFPEMMAEIISVQVPKILSGKVKPIYFHTQ	soluble
MGSDKIHHHHHHVVIGFFKKLFNVRDRNEQAKFTGITTAEKRQQTKPQTPVPAIEVTEHQAVESQLDLSALFYSLLFATPSTTTTGIANNLERSVMQNIEQALSSPQSIAENVLKLPSKILELDKKLGDDNIETQELILLIEQDPLLCVEVLKLCNSPAFKRADTDVSSIQQALVQVGRQQLRQFITACLARELIDIKPIYFRRFGAEIWRHSMQVAFLASELASNEQRDSAFLLGLLHDVGKIAIFKMLVDAFYQAEPGEQPNSILFKQVMTTKSLTLSALLARSWQLSQHFETPLTLLANTNIKPTDGMTLLIWKANIISECSMLLQVDKLPQPALAVLLAQVECSEEDFIELHQKLIQF	not soluble
MSLQDLTINAIGAQGDGLARTADGKPAFVPLTLPGEVVRAKMDGARGEVVEILAPSPERVAPACRHYGVCGGCALQHWAAEPYRAWKAEQVRLQLSMEGLETEILPTFAAPPASRRRVALHARKGGKGQGARLGFKERRSWNLVSIEECPVTDPRLVAALPALARLAEPFLEHPKSAPTLHVTLTATGLDIDITGVERKSGGLSADARMRAAMAAGEGDFARVTLAGETIYGARQPLVKLGQAVVALPPGSFLQAVPAAEKAMVELAVAEAQGASRVADLYCGVGTFTFPLAEVAQVYAAEMSAPAITALKAAIGGAPGLKPITAEARDLVRRPVLSTELAKTDVVVIDPPRAGAAEQTVEIAKSKVAKVLGVSCNPQTFAKDARVLVDAGFKLVRVTPVDQFVWSPHIELVGVFTREGHHHHHH	soluble
MAFVTTAEVCDANQELIRSGQLRALQPIFQIYGRRQIFSGPVVTVKVFEDNGLIRQFIEEKGNGRVLVVDGGGSQRCAILGGNPVVQAQNNGWAGIVVNGCIRDVDEINGCDIGVRALASHPIKASKKGLGEQRVPVNIAGTRICDGEWLYADTDGILVSQIELSV	soluble
GPISEFPVDFHYGVRVDVTLLSKIRRVNEHIKSATKTGVVQVHGSACTPTLSVLSSVGTAGVLGMRIKNALTPLVGHTEGSGDVSFSFRNTSVGSGFTHTRELFGANVLDAGIAFYRKGEACDTGAQPQFVRTTISYGDNLTSTVHKSVVDQKGILPFHDRMEAGGRTTRLMLCGKTGAFLLKWLRQQKTKEDQTVTVSVSETLSIVTFSLGGVSKIIDFKPETKPVSGWDGLKGKKSVDVGVVHTDALSRVSLESLIAALRMCKVPGWFTPGLIWHSNEILEVEGVPTGCQSGDVKLSVLLLEVNRSV	soluble
QEGTLERSDWRKFFSEFQAKGTIVVADERQADRAMLVFDPVRSKKRYSPASTFKIPHTLFALDAGAVRDEFQIFRWDGVNRGFAGHNQDQDLRSAMRNSTVWVYELFAKEIGDDKARRYLKKIDYGNADPSTSNGDYWIEGSLAISAQEQIAFLRKLYRNELPFRVEHQRLVKDLMIVEAGRNWILRAKTGWEGRMGWWVGWVEWPTGSVFFALNIDTPNRMDDLFKREAIVRAILRSIEALPPNPAVNSDAAR	soluble
MNIAKIVREAREQSRLTTLDFATGIFDEFIQLHGDRSFRDDGAVVGGIGWLGDQAVTVVGIQKGKSLQDNLKRNFGQPHPEGYRKALRLMKQAEKFGRPVVTFINTAGAYPGVGAEERGQGEAIARNLMEMSDLKVPIIAIIIGEGGSGGALALAVADRVWMLENSIYAILSPEGFASILWKDGTRAMEAAELMKITSHELLEMDVVDKVISEIGLSSKELIKSVKKELQTELARLSQKPLEELLEERYQRFRKY	not soluble
MGSDKIHHHHHHMLTRQRPLHGIGTTQAAVLKHLRRNGIASRAELAELCGVTQAAVSMMTRDLIARGIVIQGARRQSQRGAPHIDLMLAGNIGYALGVHANSYSLTVTLLDFCGNRIGEQQLEGPYDRFSDIQTAIKSLRTDLLTSNGIDEGLLIGAAVAMPTRFRHGTAFLDLAEEVVSWAGSDLASTLRETLDCPVMIENDANAAAMGELALGNASGHDNFAYLYLSEGIGSGIIIGKELYRGNLGNAGEVGALRARGLSRPSFDDLAAWCKEHQGHIPKGRSSDQWTAYLQANPTVLDAWLRRAGPELATLAFMVTAVLAPSAIYIGGTLPRLVREKLAPWLDFSTSNPFDGARVIQPDILIPQISAVDAVAFGAAAMILHSVPGNPGL	not soluble
MRKLKMMLFGASLIMVAGCSSKENALCHPQPKPPAPPAWAMMPPSNSLQLLDETFSVSGTESSETRQHLEHHHHHH	not soluble
SADEEDSLSQFDISKEETDKLVSEVIRFILFKFHQNSGTPIKREDLTQIVTKNYRQRNLATHVINEAKKKLSNVFGYDLKELQRARSSSTGQSRLPQSQSSVDSKSYVLVSELPLEVFKKHVVDETTSPVTGFTFVVLAIVQLAGGKIPEGMLLLGLLRRSFLWFRCNVLCKVVEWKSKVHYRDLFKNLKL	soluble
SLSRYLLTDSPAVCVLSGERGVGTTTVLKRILNKTKNAVPIYINCPYDGYAALLPELAQLLGLDAESSEKDILQHLRNSEQCYLIAFDNAQRLVKPKVNGLVELMKLTNLLRRARKSHRVVLSIDKSSWRFIDRARGERLLFDLVTFMP	not soluble
MGSDKIHHHHHHMAVNRFRLENGKEELALYQIQLLKDQSHNENEEDKVSSSSFRQRILGNLLQPPNERPELPSGLYVLGLTGISGSGKSSVAQRLKNLGAYIIDSDHLGHRAYAPGGPAYQPVVEAFGTDILHKDGTINRKVLGSRVFGNKKQMKILTDIVWPVIAKLAREEMDVAVAKGKTLCVIDAAMLLEAGWQSMVHEVWTVVIPETEAVRRIVERDGLSEAAAQSRLQSQMSGQQLVEQSNVVLSTLWESHVTQSQVEKAWNLLQKRLPKAYQTRN	soluble
MIFKQNQNYWAVFDANKETLIVQTCSGLGLTAIDHLYPPHILPLDTDNETLGTTVLQALANSRTFVYDSPEDQDFFDTEKIRQRYEDWVAKLCGNLGYKTRRALFKNMMSVDIWLHNGCLKISPSRHVKLEAWNAIDADDVILSLDNSPEEIGAGLKLALSHCR	not soluble
AHHHHHHGSYLSIGTLLHRPLSSNLCIAYEIATPAIYLSPGYFTTFPATYDEILLIVSTSLAFPYVWV	soluble
MTGRIVHFEIPFDDGDRARAFYRDAFGWAIAEIPDMDYSMVTTGPVGESGMPDEPGYINGGMMQRGEVTTPVVTVDVESIESALERIESLGGKTVTGRTPVGNMGFAAYFTDSEGNVVGLWETAR	soluble
MDPSAAFRSFPTQERGILLADTYKPLSLYAADVQVRLSGSAAQVILSLEYVNETNKLVRAIAAYPAPSSYQLQCATLQGPAREISARSYVRSRPLRSVEAGSALCAEPLVDTAVSTVATQSVPWDVSPGESVLMKAVYHAPISVTHRTGEIVFTLPASLIPAVQRPPDVQRGYMKFLDARSQLRHLAQQGGSLRVCVDAQLLVPLRGVVTLEKGPEVVPEMGVTGTSVNVHYVGDTHFQMTYHDDLPKTAYMQVPLCVRAPVAETSEPLRLHTVAASLPPTSAPSDHPTAEVAAAMVVSIAPFLANCPINAEIMFVVDVHSAALGARAAESVMSAIRSLNGTASLVNVILCRDAHRGGAVSLLPDESVQSSAVPQESMLAFMKEEGVQTSSSKGPATLSPHLPSLLHDITTGRGITTSIPAGYVRNVIVLSDGGSQPVDADAVAMVCQVTNAGRACRVHAVALAATADHAVLEALAEACGGCFASAAASGSSEAGGSAVDEAVQAAVSAAAVPCLVDIRTKWDVTGGDIAVASSVQAAAAAPSPLRMATDADGGSIACVPHGTQRLLYGLLASANSQLAVRVFGRVGEMRLEYTASSAIQPPPQSDAADTAAAADATDEESGRAPPMLMTAAAAARIAYLTHILHTTSEDEALEVIALSKRYMLPSPYTTLTDGNSGPGGEHKLGGVVHLPSMQAAAHVELAIRARRVELQAAAALRALRPA	soluble
MNVNAETEDATLLLDGLLQNVAIIRFDTNKKVTYANALFAEAMGYTEEEMLQLSHPDLCFPDFVQTASYKEMWTNLLAGQKFQNKIERKNARGERVWFEATYIPIIREETVVGVAKIATDIT	not soluble
SLADHMLKRACEWMRFLGYTVYYPECHYDNDILKTCIEKKLVLLTRDIELYKRYALSVYIDSVNINEQIIQITRQFPPDPGKFMTKCPDCGSDLILMRSNGLDIPDKIKKSFSMVRYCNKCSKAFWPGTHYIKIIEKINRLLK	not soluble
MLNSYELGTSFSLEYPRLVLPWMSKKMMSSRFPQHTSFKLYASQLNRARFFKMLSFGGTVSYDFQPSRVWKHTVTPFRLAFNTLQHTTTRFDTIVDKNRSLKISLGNQFIPAMSYTFTYDNAPLKKRNNLWWETSFTSAGNLTSLVYAAFGKGFKETDKKLLNSPYAQFLKMTSEVRCLFKVGEKQHIATRLMGGILYAYGNQTVAPYSEQFYIGGANSIRAFTVRSIGPGSYRPEDKQYGYLDETGDVKLEANVEYRFPILGDLYGAAFLDAGNVWLLREQKNEEGENIRPGGLLTLRNFAKSIALGTGVGLRYDLTFLVIRLDLGIALHDPYDTGKKGYYNIPKFKDGLGLHFAIGYPFLEHHHHHH	soluble
MAHHHHHHMLFYITPFPHSEVMRVEEQHQLFLAAKEAQLVRNEATQIILSDASHHSALHGAFVRVLVELPDQSDSYIIARVGAVTTGEPYDGFSHNTSTRTDKYLVLVLPHSLASINGTQYQLNSISNSPMTEDEFNLWLSTMQEPGSVPACAYRGVVEDTDAHLYLESSKIPSRQELLAIGGRIHALGSAASQNSRNPNSRRRRSNNGSSEQSLQQPEWMPKEQQMAIPRISSGNGATLGSIAGMQDYSAFMANPTGGAGPQNGANFNHTNSDPLPSTAGVTEGTNEPSLFVEPTTPRPASATEQELDLPSRHQIRQDILNKLNHRSVVFPQNIDELKLSQLRLVERDMIEYLEHVRDVLSSKQENCVVCLDHVPTVISLPCRHKVLCRLCASAVSTCPVCRSHLFELFEPKEI	not soluble
GMTEAFPALVRQDDARYAITVGPDLAVGPPGHAYLFGGASMALALDVAAETVGRPVVQGSLQFVSFTPLGSVLDLTVEVLQSGRTLAQARVAGTVDGRLVFHSGISLGMREGFSARQWALAPPVPQPDNCPPCTTLPAQDDNARYLEGIEVREAGGPEVPSGRTRLWLRRKDGAPLDAASLAMFADFLPIALGRATGCSGGGNSLDNSLRITGAAAPGWCLCDMIIPSSASGFAQGQVTLWDQSGRLLATGAQSLLLKG	soluble
MAHHHHHHMDAAIAQLRGCLEELLTYYPHVLRNVFEVEPSPLAAPKLSQQRPRDSSALADVIEDFLTELTRVLSIGLCDDDLGLWSVLELLECVPARMQAVAEATATAPETAALSKHGAQEPLQQLQRFRFASQLVYLVRSAFPATAPAVRARIFLRLTLNQGCLVAALELLREWCRSELLVFYAASDRGRRNGAAGSASSVALLVQSDTDSDMWNSFVAAIAPVAGPPVAEIAAGAPKVAAQPFHLQLLVPGLDDNSAASHAYYTQVENYACGRQPTRPSALACYRAALRQHSGSARKHDRSFRAASAGEGAASSPKLSPHPAEQLVLRVESLSVDHRTASGKEVAPVSRGNVSYDSSSTLSSRPMTLEPLSFVHRERLRGAKKRRRRHPSLSTAGAVAREEDAAGSPTPEGKTDNTTSDNTGSVAEAALHTSTVVTEAKECQGAPEAGEKAAPPYRDDYASRDDDPQVAPTVGETGAAQAASRALDTVSTDSPASAPHCLSPALRAAESPNRTLDSSSAPALSPELRNLQHRLWLCWLAVVTHAESEERIRITVRDVDANIS	not soluble

— the DeepSol protein solubility set
